Experimental data: article doi:10.1101/2022.07.21.500988, “Molecular insight into the enzymatic macrocyclization of multiply backbone N-methylated peptides” (bioRxiv, 2022)

T1: OphP(S580A) (Omphalotus olearius, S580A)
T1 construct: also called OphP variant S580A
T1 chain: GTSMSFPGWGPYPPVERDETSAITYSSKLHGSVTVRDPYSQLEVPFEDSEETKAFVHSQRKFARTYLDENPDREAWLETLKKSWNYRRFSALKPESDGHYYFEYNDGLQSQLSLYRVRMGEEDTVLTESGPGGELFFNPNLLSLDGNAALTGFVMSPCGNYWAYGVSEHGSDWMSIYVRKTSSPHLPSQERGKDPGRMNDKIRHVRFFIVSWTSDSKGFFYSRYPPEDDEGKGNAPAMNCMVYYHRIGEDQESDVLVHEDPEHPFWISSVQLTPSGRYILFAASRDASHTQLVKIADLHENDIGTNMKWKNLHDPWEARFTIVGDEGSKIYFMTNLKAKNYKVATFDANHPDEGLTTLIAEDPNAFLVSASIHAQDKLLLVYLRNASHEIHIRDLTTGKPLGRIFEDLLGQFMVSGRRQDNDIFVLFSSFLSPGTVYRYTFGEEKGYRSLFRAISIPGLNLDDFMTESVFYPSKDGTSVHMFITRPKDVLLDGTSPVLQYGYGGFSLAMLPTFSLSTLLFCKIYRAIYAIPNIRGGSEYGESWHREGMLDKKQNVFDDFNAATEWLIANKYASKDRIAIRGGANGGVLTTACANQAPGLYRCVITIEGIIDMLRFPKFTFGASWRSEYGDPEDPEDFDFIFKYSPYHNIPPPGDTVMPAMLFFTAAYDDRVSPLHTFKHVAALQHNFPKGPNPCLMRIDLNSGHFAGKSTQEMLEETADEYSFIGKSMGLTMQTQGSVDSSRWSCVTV


Biological target: T1, OphP(S580A)
Experiment: crystal structure
Settings: both partners purified

Binder	binding result
GFPWVIVVGVIGVIG [Oph-15mer]	binds
WVIVVGVIGVIGSVMSTE (also called 18mer^CF) [Oph-18mer^NL]	binds
